Laboratory results reported in the supplement of paper PMC9112550, “Optimization of the antimicrobial peptide Bac7 by deep mutational scanning” (BMC Biology, 2022).

tested on: Escherichia coli TOP10; assay: shrunken log2 fold change of peptide-encoding DNA abundance (4.5 h post-induction vs induction); higher = less antimicrobial activity (less host growth inhibition); settings: time post-induction: 4.5 h; library: site-saturation at positions 5, 18, 19, 20
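Further: peptides expressed intracellularly from a pBAD plasmid library in pooled LB shake-flask culture, induced with 0.3% L-arabinose, DNA abundance read by NGS, three biological replicates, DESeq2 with apeglm shrinkage.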

Sequence | shrunken log2 fold change
RRIRVRPPRLPRPRPRPTMQPRP | 0.158
RRIRVRPPRLPRPRPRPTNCPRP | -0.075
RRIRVRPPRLPRPRPRPTQWPRP | 0.12
RRIRVRPPRLPRPRPRPTSNPRP | -0.296
RRIRVRPPRLPRPRPRPTVQPRP | -0.0375
RRIRVRPPRLPRPRPRPTWAPRP | 0.194
RRIRVRPPRLPRPRPRPTWPPRP | 0.446
RRIRVRPPRLPRPRPRPTWTPRP | 0.221
RRIRVRPPRLPRPRPRPTYTPRP | -0.172
RRIRVRPPRLPRPRPRPVAGPRP | 0.0748
RRIRVRPPRLPRPRPRPVATPRP | 0.212
RRIRVRPPRLPRPRPRPVAWPRP | 0.421
RRIRVRPPRLPRPRPRPVDDPRP | 0.177
RRIRVRPPRLPRPRPRPVDIPRP | 0.0216
RRIRVRPPRLPRPRPRPVDMPRP | 0.00782
RRIRVRPPRLPRPRPRPVEKPRP | 0.265
RRIRVRPPRLPRPRPRPVGLPRP | 0.216
RRIRVRPPRLPRPRPRPVHFPRP | 0.13
RRIRVRPPRLPRPRPRPVHMPRP | -0.0089
RRIRVRPPRLPRPRPRPVHQPRP | 0.241
RRIRVRPPRLPRPRPRPVIHPRP | -0.968
RRIRVRPPRLPRPRPRPVLAPRP | 0.239
RRIRVRPPRLPRPRPRPVMKPRP | -0.127
RRIRVRPPRLPRPRPRPVNAPRP | -0.0836
RRIRVRPPRLPRPRPRPVNVPRP | -0.411

Sequence | shrunken log2 fold change
RRIRVRPPRLPRPRPRPVPNPRP | -0.175
RRIRVRPPRLPRPRPRPVQEPRP | -0.0375
RRIRVRPPRLPRPRPRPVQRPRP | 0.167
RRIRVRPPRLPRPRPRPVQTPRP | 0.0297
RRIRVRPPRLPRPRPRPVQVPRP | -0.269
RRIRVRPPRLPRPRPRPVVCPRP | 0.251
RRIRVRPPRLPRPRPRPVVPPRP | 0.132
RRIRVRPPRLPRPRPRPVVSPRP | 0.0132
RRIRVRPPRLPRPRPRPVWGPRP | 1.8
RRIRVRPPRLPRPRPRPVYAPRP | -0.00846
RRIRVRPPRLPRPRPRPWATPRP | -0.122
RRIRVRPPRLPRPRPRPWAVPRP | 0.157
RRIRVRPPRLPRPRPRPWCCPRP | -0.203
RRIRVRPPRLPRPRPRPWCRPRP | -0.396
RRIRVRPPRLPRPRPRPWDDPRP | -0.27
RRIRVRPPRLPRPRPRPWEMPRP | -0.00133
RRIRVRPPRLPRPRPRPWETPRP | 0.0394
RRIRVRPPRLPRPRPRPWFCPRP | -0.299
RRIRVRPPRLPRPRPRPWFMPRP | -0.537
RRIRVRPPRLPRPRPRPWFTPRP | 0.0469
RRIRVRPPRLPRPRPRPWGAPRP | 0.21
RRIRVRPPRLPRPRPRPWHKPRP | -0.127
RRIRVRPPRLPRPRPRPWHNPRP | -0.49
RRIRVRPPRLPRPRPRPWKAPRP | 0.0634
RRIRVRPPRLPRPRPRPWKQPRP | -0.0479

Sequence | shrunken log2 fold change
RRIRVRPPRLPRPRPRPWLEPRP | 0.147
RRIRVRPPRLPRPRPRPWLRPRP | -0.171
RRIRVRPPRLPRPRPRPWLYPRP | -0.157
RRIRVRPPRLPRPRPRPWMMPRP | -0.0912
RRIRVRPPRLPRPRPRPWMPPRP | -0.199
RRIRVRPPRLPRPRPRPWNSPRP | -0.106
RRIRVRPPRLPRPRPRPWNWPRP | -0.00795
RRIRVRPPRLPRPRPRPWQFPRP | -0.0175
RRIRVRPPRLPRPRPRPWRSPRP | -0.0506
RRIRVRPPRLPRPRPRPWSDPRP | -0.138
RRIRVRPPRLPRPRPRPWSFPRP | -0.225
RRIRVRPPRLPRPRPRPWSKPRP | -0.2
RRIRVRPPRLPRPRPRPWTNPRP | -0.584
RRIRVRPPRLPRPRPRPWVEPRP | -0.0944
RRIRVRPPRLPRPRPRPYADPRP | -0.543
RRIRVRPPRLPRPRPRPYCDPRP | -0.348
RRIRVRPPRLPRPRPRPYCGPRP | -0.502
RRIRVRPPRLPRPRPRPYCWPRP | -0.0314
RRIRVRPPRLPRPRPRPYDIPRP | -0.279
RRIRVRPPRLPRPRPRPYDPPRP | -0.468
RRIRVRPPRLPRPRPRPYGTPRP | -0.13
RRIRVRPPRLPRPRPRPYHQPRP | 0.00427
RRIRVRPPRLPRPRPRPYIAPRP | -0.608
RRIRVRPPRLPRPRPRPYICPRP | -0.468
RRIRVRPPRLPRPRPRPYIEPRP | -0.584

Sequence | shrunken log2 fold change
RRIRVRPPRLPRPRPRPYKKPRP | 0.0251
RRIRVRPPRLPRPRPRPYLIPRP | 0.0388
RRIRVRPPRLPRPRPRPYMQPRP | -0.547
RRIRVRPPRLPRPRPRPYNCPRP | -0.432
RRIRVRPPRLPRPRPRPYQAPRP | -0.293
RRIRVRPPRLPRPRPRPYQIPRP | 0.043
RRIRVRPPRLPRPRPRPYRFPRP | -0.0944
RRIRVRPPRLPRPRPRPYRGPRP | -0.402
RRIRVRPPRLPRPRPRPYSDPRP | -0.145
RRIRVRPPRLPRPRPRPYSEPRP | -0.217
RRIRVRPPRLPRPRPRPYSKPRP | 0.12
RRIRVRPPRLPRPRPRPYTHPRP | -0.912
RRIRVRPPRLPRPRPRPYTLPRP | -0.666
RRIRVRPPRLPRPRPRPYTVPRP | -0.0784
RRIRVRPPRLPRPRPRPYVNPRP | 0.0651
RRIRVRPPRLPRPRPRPYWDPRP | 0.0849
RRIRVRPPRLPRPRPRPYYEPRP | -0.632
RRIRWRPPRLPRPRPRPACFPRP | 0.513
RRIRWRPPRLPRPRPRPACMPRP | 0.164
RRIRWRPPRLPRPRPRPADLPRP | 0.331
RRIRWRPPRLPRPRPRPAEAPRP | 0.0865
RRIRWRPPRLPRPRPRPAEHPRP | -0.0393
RRIRWRPPRLPRPRPRPAEMPRP | 0.213
RRIRWRPPRLPRPRPRPAESPRP | 0.0626
RRIRWRPPRLPRPRPRPAFGPRP | 0.53

Sequence | shrunken log2 fold change
RRIRWRPPRLPRPRPRPAFTPRP | 0.0598
RRIRWRPPRLPRPRPRPAHCPRP | -0.0174
RRIRWRPPRLPRPRPRPAHWPRP | 0.0695
RRIRWRPPRLPRPRPRPAIDPRP | 0.294
RRIRWRPPRLPRPRPRPAIVPRP | 0.144
RRIRWRPPRLPRPRPRPAKGPRP | -0.0312
RRIRWRPPRLPRPRPRPAKSPRP | 0.228
RRIRWRPPRLPRPRPRPAKVPRP | -0.177
RRIRWRPPRLPRPRPRPALFPRP | 0.496
RRIRWRPPRLPRPRPRPALSPRP | -0.0314
RRIRWRPPRLPRPRPRPAMCPRP | 0.0884
RRIRWRPPRLPRPRPRPAMVPRP | 0.483
RRIRWRPPRLPRPRPRPAPFPRP | 0.0259
RRIRWRPPRLPRPRPRPAPRPRP | 1.12
RRIRWRPPRLPRPRPRPAPTPRP | 0.695
RRIRWRPPRLPRPRPRPAQCPRP | -0.00191
RRIRWRPPRLPRPRPRPAQGPRP | 0.27
RRIRWRPPRLPRPRPRPARCPRP | 0.209
RRIRWRPPRLPRPRPRPARLPRP | 0.523
RRIRWRPPRLPRPRPRPATQPRP | 0.105
RRIRWRPPRLPRPRPRPAVGPRP | 0.229
RRIRWRPPRLPRPRPRPAVYPRP | -0.682
RRIRWRPPRLPRPRPRPAWAPRP | 0.579
RRIRWRPPRLPRPRPRPAWRPRP | 0.642
RRIRWRPPRLPRPRPRPCAKPRP | -0.0723

Sequence | shrunken log2 fold change
RRIRWRPPRLPRPRPRPCAMPRP | -0.272
RRIRWRPPRLPRPRPRPCAPPRP | -0.0663
RRIRWRPPRLPRPRPRPCCCPRP | 0.129
RRIRWRPPRLPRPRPRPCCEPRP | -0.00563
RRIRWRPPRLPRPRPRPCCSPRP | -0.0402
RRIRWRPPRLPRPRPRPCDHPRP | -0.00122
RRIRWRPPRLPRPRPRPCEFPRP | -0.0211
RRIRWRPPRLPRPRPRPCEIPRP | -0.243
RRIRWRPPRLPRPRPRPCFFPRP | 0.0878
RRIRWRPPRLPRPRPRPCGCPRP | -0.0615
RRIRWRPPRLPRPRPRPCHNPRP | -1.64
RRIRWRPPRLPRPRPRPCHTPRP | -0.53
RRIRWRPPRLPRPRPRPCHWPRP | -0.116
RRIRWRPPRLPRPRPRPCIMPRP | -0.339
RRIRWRPPRLPRPRPRPCKLPRP | -0.694
RRIRWRPPRLPRPRPRPCMCPRP | -0.0735
RRIRWRPPRLPRPRPRPCMKPRP | 0.00396
RRIRWRPPRLPRPRPRPCNDPRP | -0.172
RRIRWRPPRLPRPRPRPCNRPRP | -0.0268
RRIRWRPPRLPRPRPRPCQCPRP | -0.000687
RRIRWRPPRLPRPRPRPCRCPRP | -0.0961
RRIRWRPPRLPRPRPRPCRQPRP | -0.134
RRIRWRPPRLPRPRPRPCRRPRP | 0.0574
RRIRWRPPRLPRPRPRPCRTPRP | 0.112
RRIRWRPPRLPRPRPRPCSTPRP | 0.137
